This note sets out measurements from paper doi:10.1101/2025.03.20.644318, “Functional Spectrum of USP7 Pathogenic Variants in Hao-Fountain Syndrome: Insights into the Enzyme’s Activity, Stability, and Allosteric Modulation” (bioRxiv, 2025).

For assay [1], the target named is T1, ubiquitin (UniProt P0CG48 1-76).
T1 construct: also called unlabeled ubiquitin
The experiment in a line: NMR titration; unlabeled ubiquitin added stepwise to ~250 uM 15N-labeled USP7 catalytic domain up to 1:4 molar excess; 2D 1H-15N TROSY, six titration points, 800 MHz, 30 °C; 20 mM Tris pH 7.5, 100 mM NaCl, 2 mM DTT, 10% D2O; KD from nonlinear fit of total chemical shift changes against ubiquitin concentration. To be noted: both partners purified.

The target in assay [2] is T2, ubiquitin (UniProt P0CG48 1-76).
T2 construct: neither species nor source of the unlabeled ubiquitin is stated; also called unlabeled ubiquitin
The experiment in a line: NMR titration; unlabeled ubiquitin added to ~250 uM 15N-labeled USP7 catalytic domain up to 1:4 molar excess of ubiquitin; 2D 1H-15N TROSY, six titration points; KD from fit of total chemical shift changes; 30°C; 20 mM Tris pH 7.5, 100 mM NaCl, 2 mM DTT, 10% D2O. To be noted: both partners purified.

B1: USP7 catalytic domain (residues 207-560) E345K (domain or fragment, human, UniProt Q93009 207-560, looked up)
chain: SKKHTGYVGLKNQGATCYMNSLLQTLFFTNQLRKAVYMMPTEGDDSSKSVPLALQRVFYELQHSDKPVGTKKLTKSFGWETLDSFMQHDVQELCRVLLDNVENKMKGTCVEGTIPKLFRGKMVSYIQCKEVDYRSDRRKDYYDIQLSIKGKKNIFESFVDYVAVEQLDGDNKYDAGEHGLQEAEKGVKFLTLPPVLHLQLMRFMYDPQTDQNIKINDRFEFPEQLPLDEFLQKTDPKDPANYILHAVLVHSGDNHGGHYVVYLNPKGDGKWCKFDDDVVSRCTKEEAIEHNYGGHDDDLSVRHCTNAYMLVYIRESKLSEVLQAVTDHDIPQQLVERLQEEKRIEAQKRKERQE
modifications: 15N-labeled
notes: patient-derived variant; also called 15N USP7 (E345K); E345K USP7 catalytic domain; source: E. coli BL21 (DE3), M9 minimal media with 15NH4Cl, purified (TALON cobalt resin, thrombin cleavage, SEC); not shown: His6, N-terminal, cleaved
Turning to B1, the dissociation constant Kd – broadly, the free concentration of one partner at which half of the binding sites on the other are occupied at equilibrium, for simple one-to-one binding – with ubiquitin [1] worked out at 621 ± 56.6 µM.

B2: USP7 catalytic domain (residues 207-560) N418S (domain or fragment, human, UniProt Q93009 207-560, looked up)
chain: SKKHTGYVGLKNQGATCYMNSLLQTLFFTNQLRKAVYMMPTEGDDSSKSVPLALQRVFYELQHSDKPVGTKKLTKSFGWETLDSFMQHDVQELCRVLLDNVENKMKGTCVEGTIPKLFRGKMVSYIQCKEVDYRSDRREDYYDIQLSIKGKKNIFESFVDYVAVEQLDGDNKYDAGEHGLQEAEKGVKFLTLPPVLHLQLMRFMYDPQTDQSIKINDRFEFPEQLPLDEFLQKTDPKDPANYILHAVLVHSGDNHGGHYVVYLNPKGDGKWCKFDDDVVSRCTKEEAIEHNYGGHDDDLSVRHCTNAYMLVYIRESKLSEVLQAVTDHDIPQQLVERLQEEKRIEAQKRKERQE
modifications: 15N-labeled
notes: patient-derived variant; also called 15N USP7 (N418S); N418S USP7 catalytic domain; source: E. coli BL21 (DE3), M9 minimal media with 15NH4Cl, purified (TALON cobalt resin, thrombin cleavage, SEC); not shown: His6, N-terminal, cleaved
On to B2, for which the equilibrium dissociation constant (Kd) with ubiquitin [1] came out at 73.4 ± 6.4 µM.

B3: USP7 catalytic domain (residues 207-560) G392D (domain or fragment, human, UniProt Q93009 207-560, looked up)
chain: SKKHTGYVGLKNQGATCYMNSLLQTLFFTNQLRKAVYMMPTEGDDSSKSVPLALQRVFYELQHSDKPVGTKKLTKSFGWETLDSFMQHDVQELCRVLLDNVENKMKGTCVEGTIPKLFRGKMVSYIQCKEVDYRSDRREDYYDIQLSIKGKKNIFESFVDYVAVEQLDGDNKYDAGEHGLQEAEKDVKFLTLPPVLHLQLMRFMYDPQTDQNIKINDRFEFPEQLPLDEFLQKTDPKDPANYILHAVLVHSGDNHGGHYVVYLNPKGDGKWCKFDDDVVSRCTKEEAIEHNYGGHDDDLSVRHCTNAYMLVYIRESKLSEVLQAVTDHDIPQQLVERLQEEKRIEAQKRKERQE
modifications: 15N-labeled
notes: patient-derived variant; also called 15N USP7 (G392D); G392D USP7 catalytic domain; source: E. coli BL21 (DE3), M9 minimal media with 15NH4Cl, purified (TALON cobalt resin, thrombin cleavage, SEC); not shown: His6, N-terminal, cleaved
On to B3, for which the dissociation constant (Kd) in the assay with ubiquitin [1] stood at 33.6 ± 6.6 µM.

B4: USP7 catalytic domain (residues 207-560) Y331H (domain or fragment, human, UniProt Q93009 207-560, looked up)
chain: SKKHTGYVGLKNQGATCYMNSLLQTLFFTNQLRKAVYMMPTEGDDSSKSVPLALQRVFYELQHSDKPVGTKKLTKSFGWETLDSFMQHDVQELCRVLLDNVENKMKGTCVEGTIPKLFRGKMVSHIQCKEVDYRSDRREDYYDIQLSIKGKKNIFESFVDYVAVEQLDGDNKYDAGEHGLQEAEKGVKFLTLPPVLHLQLMRFMYDPQTDQNIKINDRFEFPEQLPLDEFLQKTDPKDPANYILHAVLVHSGDNHGGHYVVYLNPKGDGKWCKFDDDVVSRCTKEEAIEHNYGGHDDDLSVRHCTNAYMLVYIRESKLSEVLQAVTDHDIPQQLVERLQEEKRIEAQKRKERQE
modifications: 15N-labeled
notes: patient-derived variant; also called 15N USP7 (Y331H); Y331H USP7 catalytic domain; source: E. coli BL21 (DE3), M9 minimal media with 15NH4Cl, purified (TALON cobalt resin, thrombin cleavage, SEC); not shown: His6, N-terminal, cleaved
On to B4, for which the Kd with ubiquitin [1] turned out to be 26 ± 7.9 µM.

B5: USP7 catalytic domain (residues 207-560) M225I (domain or fragment, human, UniProt Q93009 207-560, looked up)
chain: SKKHTGYVGLKNQGATCYINSLLQTLFFTNQLRKAVYMMPTEGDDSSKSVPLALQRVFYELQHSDKPVGTKKLTKSFGWETLDSFMQHDVQELCRVLLDNVENKMKGTCVEGTIPKLFRGKMVSYIQCKEVDYRSDRREDYYDIQLSIKGKKNIFESFVDYVAVEQLDGDNKYDAGEHGLQEAEKGVKFLTLPPVLHLQLMRFMYDPQTDQNIKINDRFEFPEQLPLDEFLQKTDPKDPANYILHAVLVHSGDNHGGHYVVYLNPKGDGKWCKFDDDVVSRCTKEEAIEHNYGGHDDDLSVRHCTNAYMLVYIRESKLSEVLQAVTDHDIPQQLVERLQEEKRIEAQKRKERQE
modifications: 15N-labeled
notes: patient-derived variant; also called 15N USP7 (M225I); M225I USP7 catalytic domain; source: E. coli BL21 (DE3), M9 minimal media with 15NH4Cl, purified (TALON cobalt resin, thrombin cleavage, SEC); not shown: His6, N-terminal, cleaved
For B5, the Kd with ubiquitin [1] worked out at 91.6 ± 5.2 µM.

B6: E345K USP7 catalytic domain (residues 207-560) (domain or fragment, human, UniProt Q93009 207-560, looked up)
chain: SKKHTGYVGLKNQGATCYMNSLLQTLFFTNQLRKAVYMMPTEGDDSSKSVPLALQRVFYELQHSDKPVGTKKLTKSFGWETLDSFMQHDVQELCRVLLDNVENKMKGTCVEGTIPKLFRGKMVSYIQCKEVDYRSDRRKDYYDIQLSIKGKKNIFESFVDYVAVEQLDGDNKYDAGEHGLQEAEKGVKFLTLPPVLHLQLMRFMYDPQTDQNIKINDRFEFPEQLPLDEFLQKTDPKDPANYILHAVLVHSGDNHGGHYVVYLNPKGDGKWCKFDDDVVSRCTKEEAIEHNYGGHDDDLSVRHCTNAYMLVYIRESKLSEVLQAVTDHDIPQQLVERLQEEKRIEAQKRKERQE
notes: USP7 catalytic domain, residues 207-560, with the Hao-Fountain syndrome patient variant E345K; 15N-labelled in the NMR titrations; source: E. coli BL21 (DE3), purified (TALON cobalt resin, thrombin, SEC); M9 minimal media with 15NH4Cl for NMR, LB for enzyme assays; not shown: His6, N-terminal, cleaved
Take B6: the Kd with ubiquitin [2] was roughly 600 µM.
